Our source for the stoichiometry N (copies per triplex) values is paper PMC3744435.

This test addresses capsid triplex (heterotrimer of two mCP and one mC-BP) (human cytomegalovirus (HCMV) strain AD169) (UniProt P16728). Briefly: cryo-EM structure.

In turn, “tegument protein pp150 (from UniProt P08318 1-1048) (natural protein)” gave a stoichiometry N (copies per triplex) of 3.
